Measured values from US11266716B2, “Use of dermcidin in sterile inflammatory conditions” (THE FEINSTEIN INSTITUTES FOR MEDICAL RESEARCH, priority 2015, dated 2022).

Tests used:
[1] = system: various types of cells; details: cited from earlier work
[2] = system: Murine macrophage-like RAW 264.7; experiment: LPS- or CIRP-induced NO release by murine macrophages (Griess reaction); assay type: cell-based; details: 16 h
Protocol: FIG. 2. Dermcidin dose-dependently attenuated LPS- and CIRP-induced NO release by murine macrophages. Murine macrophages were stimulated with LPS or CIRP alone or in the presence of recombinant dermcidin (DCD) for 16 hours, and extracellular levels of nitric oxide (NO) were determined by the Griess Reagent. *, P<0.05 versus “−control”; #, P<0.05 versus “+LPS”, or “+CIRP” alone.
Cell culture: Murine macrophage-like RAW 264.7 were obtained from the American Type Culture Collection (ATCC, Rockville, Md.), and were cultured in DMEM supplemented with 1% penicillin/streptomycin and 10% FBS. Human blood was purchased from the Long Island Blood Bank (Melville, N.Y.), and human peripheral blood mononuclear cells (HuPBMCs) were isolated by density gradient centrifugation through Ficoll (Ficoll-Paque PLUS, Pharmacia, Piscataway, N.J.) as previously described (20-22). […] Subsequently, the cell-conditioned culture media were analyzed respectively for levels of nitric oxide, and other cytokines by the Griess Reaction and Cytokine Antibodies Arrays as previously described (19, 23).
Nitric oxide (NO) assay: The levels of NO in the culture medium were determined indirectly by measuring the NO^2− production with a colorimetric assay based on the Griess reaction (21, 24). NO^2− concentrations were determined with reference to a standard curve generated with sodium nitrite at various dilutions.

[3] = system: human peripheral blood mononuclear cells (HuPBMCs); experiment: LPS- or HMGB1-induced cytokine/chemokine release by human monocytes (Cytokine Antibody Array); assay type: cell-based
Protocol: FIG. 3A-3B. Dermcidin modulated LPS- and HMGB1-induced chemokine release by human monocytes. Human peripheral mononuclear cells (huPBMCs) were stimulated with LPS (0.8 μg/ml) or HMGB1 (4.0 μg/ml) alone, or in the presence of DCD (1.0 μg/ml) for 16 hours, and extracellular levels of cytokines and chemokines were determined by Cytokine Antibody Arrays (Panel A, B). A, Representative cytokine antibody arrays. The name of the cytokines and positive controls (“Pos”, or “+Ctrl”) were labeled in the table below. B, Relative cytokine levels. The relative cytokine levels were estimated by measuring the intensity of corresponding signal, and expressed as mean±SEM [% of positive controls (“+Ctrl”) of respective arrays] of two independent experiments. *, P<0.05 versus “untreated”; #, P<0.05 versus “+LPS” or “+HMGB1” alone.
Cell culture: Murine macrophage-like RAW 264.7 were obtained from the American Type Culture Collection (ATCC, Rockville, Md.), and were cultured in DMEM supplemented with 1% penicillin/streptomycin and 10% FBS. Human blood was purchased from the Long Island Blood Bank (Melville, N.Y.), and human peripheral blood mononuclear cells (HuPBMCs) were isolated by density gradient centrifugation through Ficoll (Ficoll-Paque PLUS, Pharmacia, Piscataway, N.J.) as previously described (20-22). Adherent macrophages or HuPBMCs were gently washed with, and cultured in, DMEM before stimulation with LPS (0.4 μg/ml), CIRP (2.0 μg/ml), or HMGB1 (1.0 μg/ml) in the absence or presence of recombinant dermcidin for 16 h. Subsequently, the cell-conditioned culture media were analyzed respectively for levels of nitric oxide, and other cytokines by the Griess Reaction and Cytokine Antibodies Arrays as previously described (19, 23).
Cytokine antibody array: Human Cytokine Antibody Array C3 (Cat. No. AAH-CYT-3-4, RayBiotech Inc., Norcross, Ga., USA), which respectively detect 42 cytokines on one membrane, were used to determine cytokine levels in human monocyte-conditioned culture medium as previously described (21, 24). Briefly, the membranes were sequentially incubated with equal volumes of cell culture medium (200 al), primary biotin-conjugated antibodies, and horseradish peroxidase-conjugated streptavidin. After exposing to X-ray film, the relative signal intensity was determined using the Scion Image software.

[4] = system: Male C57BL/6 mice; experiment: Hepatic ischemia/reperfusion (I/R) injury in mice; assay type: in vivo
Protocol: FIG. 4A-4B. Intravenous administration of dermcidin conferred protection against hepatic ischemia/reperfusion (I/R) injury. Male C57BL/6 mice (20-25 g) were subjected to hepatic ischemia/reperfusion by temporal clamping the hepatic artery and portal vein for 60 minutes, which typically produced ischemia in 70% of the liver. At the beginning of the reperfusion, 0.2 ml saline or recombinant dermcidin solution (“DCD”, 5.0 mg/kg BW) was injected via the internal jugular vein. At 24 h after the onset of ischemia, animals were euthanized to harvest blood to measure serum levels of hepatic injury markers such as alanine aminotransferase (ALT) (4A) and aspartate aminotransferase (AST) (4B) using commercial kits.
FIG. 5. DCD monomer protects against hepatic ischemic/reperfusion injury. Representative liver histology at 24 h post the onset of reperfusion. Note a normal liver parenchyma architecture in the “Sham” control, but hepatic necrosis in the “I/R”. […] Liver injury was also assessed histologically using the Suzuki liver injury scores, and expressed as means±S.E. of 3-6 animals per group. *P<0.05 vs. sham; #P<0.05 vs. “I/R” group.
FIG. 6A-6B. DCD protects against hepatic ischemic/reperfusion-induced lung injury. 6A). Histopathological characteristics of lung injury after hepatic I/R. Representative H&E histological images of lung sections at 24 h post the onset of reperfusion. Note a normal lung architecture in the “Sham” control, and extensive lung injury and neutrophil infiltration in the “I/R” group. […] 6B). Histological Scores. Lung injury was assessed histologically using American Thoracic Society Documents' lung injury scores, and expressed as means±S.E. of 3-6 animals per group. *P<0.05 vs. sham; #P<0.05 vs. “I/R” group.
In further experiments, intravenous administration of dermcidin conferred protection against hepatic ischemia/reperfusion (I/R) injury. Male C57BL/6 mice (20-25 g) were subjected to hepatic ischemia/reperfusion by temporal clamping the hepatic artery and portal vein for 60 minutes, which typically produced ischemia in 70% of the liver. […]
A representative liver histology at 24 h post the onset of reperfusion is shown, note a normal liver parenchyma architecture in the “Sham” control, and hepatic necrosis in the “I/R”. […] Liver injury was also assessed histologically using the Suzuki liver injury scores, and expressed as means±S.E. of 3-6 animals per group. *P<0.05 vs. sham; #P<0.05 vs. “I/R” group.
DCD also protects against hepatic ischemic/reperfusion-induced lung injury. […] Lung injury was assessed histologically using American Thoracic Society Documents' lung injury scores, and expressed as means±S.E. of 3-6 animals per group. *P<0.05 vs. sham; #P<0.05 vs. “I/R” group.

[5] = human monocyte cultures, HMGB1, DCD 1.0 μg/ml, 16 h
[6] = human monocyte cultures, LPS, DCD 1.0 μg/ml, 16 h
[7] = 5.0 mg/kg BW via internal jugular vein at beginning of reperfusion, 24 h after onset of ischemia
[8] = 24 h post the onset of reperfusion

Molecule: N-terminal peptide (residue 20-62): N-terminal proteolytic peptide of dermcidin, residue 20-62 (YDPEAASAPGSGNPCHEASAAQKENAGEDPGLARQAPKPRKQR; UniProt P81605 20-62, looked up, fragment)
- protection of cells against oxidative or hypoxic stresses [1]: protect various types of cells against oxidative or hypoxic stresses

B1: dermcidin: Recombinant human dermcidin, mature form residues 20-110 without signal peptide, N-terminal histidine tag, expressed in E. coli (protein, listed as Homo sapiens)
chain: YDPEAASAPGSGNPCHEASAAQKENAGEDPGLARQAPKPRKQRSSLLEKGLDGAKKAVGGLGKLGKDAVEDLESVGKGAVHDVKDVLDSVL
- CIRP-induced NO release ([2]; macrophages stimulated with CIRP): dose-dependently and significantly attenuated
- LPS-induced NO release ([2]; macrophages stimulated with LPS): dose-dependently and significantly attenuated
- immune modulating properties on dimer formation ([3]; dimers formed in the absence of reducing agents, in vitro, data not shown): remained unaltered
- TNF secretion ([3]; human monocyte cultures): slightly stimulated
- HMGB1-induced release of GRO-α [3, 5]: effectively inhibited
- HMGB1-induced release of MCP-3 [3, 5]: effectively inhibited
- LPS-induced release of GRO-α [3, 6]: effectively inhibited
- LPS-induced release of MCP-3 [3, 6]: effectively inhibited
- serum alanine aminotransferase (ALT), hepatic injury marker [4, 7]: significant protection
- serum aspartate aminotransferase (AST), hepatic injury marker [4, 7]: significant protection
- lung histology (H&E) after hepatic I/R [4, 8]: well-preserved tissue structure

B2: DCD monomer: Recombinant dermcidin 12-14 kDa monomer, seen in the presence of reducing agent DTT (protein, UniProt P81605 20-110, looked up)
Dermcidin: YDPEAASAPGSGNPCHEASAAQKENAGEDPGLARQAPKPRKQRSSLLEKGLDGAKKAVGGLGKLGKDAVEDLESVGKGAVHDVKDVLDSVL
- liver histology after hepatic I/R [4, 8]: well-preserved tissue structure
